Patent US20090035258A1, “METHODS OF TREATING CANCER BY ADMINISTERING HUMAN IL-18 COMBINATIONS” (priority 2007, published 2009)
Read-outs that look alike come from different tables or passages of the source.

Experiments:
[1] = system: murine colon carcinoma, Colo 26; assay: IL-18 and 5-FU combination in syngeneic murine colon cancer model Colo26; assay type: in vivo, mouse; conditions: 5-FU alone or mIL-18 alone
Method: This study aimed to evaluate the efficacy of mIL-18 (SEQ ID NO:2) combination therapy with 5-fluorouracil (5-FU), as compared to monotherapy with 5-FU, or mIL-18 (SEQ ID NO:2) alone. Our study was performed in a well established syngeneic subcutaneous model of murine colon carcinoma, Colo 26, in BALB/c mice. The dosing with mIL-18 (SEQ ID NO:2) was performed daily with 10 μg/mouse s.c. on days 10-30 after tumor inoculation. The dosing with 5-FU was performed i.p. twice a week in the ascending dose: 27, 45 and 74 μg/mouse.
The data comparing tumor volumes in different treatment groups were evaluated at a selected representative time-point, and were expressed as mean+/−SD (FIG. 21), and as median+/−range (FIG. 22). The data were first checked for normal distribution (Gaussian approximation), and standard deviation values were compared to make sure that there is an equal variance. […] Therefore, a non-parametric test (Kruskal-Wallis analysis and Dunn's comparison test) was used for the statistical evaluation. […] FIG. 24 (median+/−SD) and FIG. 25 (mean+/−SD) show the effect of IL-18 and 5-FU combination therapy in same Colo26 syngeneic colon tumor model. […]
Survival of mice bearing Colo26 in different treatment groups was plotted in a Kaplan-Meyer survival curve analysis, and evaluated by Logrank test, and is shown in FIG. 26. […]

EL-4 T-cell lymphoma = assay: IL-18 combination with doxorubicin in EL-4 T cell lymphoma, survival; assay type: in vivo, mouse
Method: Studies were performed in female C57/BL/6 mice. As a general protocol, C57/BL mice were injected I.P. with 0.2 cc of stock EL-4 cells. EL-4 murine T-lymphoma cells were expanded in RPMI w/10% FCS. All animals were randomized to six or seven mice per study group with food and water ad libitum. EL-4 cells were harvested on day 0, counted and implanted I.P. with 5×10^5 EL-4 lymphoma cells. Animals were randomized to treatment groups of 6/7 animals on Day 3. Doxorubicin was administered IV on Days 3 &10, pos-implantation. mIL-18 (SEQ ID NO:2) was administered S.C. on Days 3-16. The animals were observed daily for toxicity and mortality.
All animals tolerated dosing schedule and levels well by gross observation. On day 16, all dosing was terminated, and median vehicle death occurred on day 17.5. All vehicle mice expired between days 16-18 post-implantation. Increase in lifespan was calculated by study group/vehicle group−1×100%. For mIL-18 (SEQ ID NO:2) combination therapy with doxorubicin in EL-4 T cell lymphoma, the data were analyzed with respect to median survival time and increase in lifespan.
The prolongation of life span in response to combinational therapy with mIL-18 (SEQ ID NO:2) and doxorubicin was assessed in the syngeneic tumor model of female C57BI/6 mice bearing EL-4 T-cell lymphoma. […] As described below, when vehicle animals expired (on day 16) all dosing was terminated. […]

NK cells [2] = assay: NK cytotoxicity assay in EL-4 T-cell lymphoma model; conditions: 21 hours post-treatment (FIG. 12)
[3] = cited from earlier work
MOPC-315 plasmacytoma = assay: IL-18 monotherapy in advanced MOPC-315 plasmacytoma model; assay type: in vivo, mouse
Description: Based upon a broad spectrum of immunostimulatory properties, IL-18 has been studied in a variety of preclinical tumor models. […] Further support for IL-18 mediated cellular immunity also comes from immunohistochemistry performed on established MOPC-315 tumors in control and IL-18 treated mice. […] In addition, it seems that an intact Fas/Fas ligand pathway is beneficial to anti-tumor response.

[4] = system: human Ramos B-cell lymphoma line; assay: IL-18 combination therapy with RITUXAN in murine human B-cell lymphoma model; assay type: in vivo, mouse; conditions: first experiment (FIG. 3); mIL-18 single agent 100 μg/dose
Method: The study was performed in outbred female homozygous SCID mice (ICR-Prkdc^scid) that lack both T and B cells.
Mice were injected with human Ramos B-cell lymphoma line that was originally derived from a patient with Burkitt's lymphoma (ATCC catalogue, CRL 1596). The tumor 1:10 homogenate was inoculated into 6-8 week old mice at the dose 0.5 ml per mouse. […] The therapy was initiated when the median tumor volume per group reached 80-150 mm^3 (at day 12 post tumor inoculation). In addition, those mice that grew a tumor with a volume outside of the set limits were excluded from the study.
The number of animals was increased to n=12, in order to have a better window to measure statistical significance. Tumor volume was measured using the viener calipers two to three times a week.

NK cells [5] = system: NK cells

**Q.** Which “therapeutic effect of monotherapy compared to control” value [1] does the source give for `O=c1[nH]cc(F)c(=O)[nH]1` [5-FU, 5-fluorouracil, reference compound] here?
**A.** did not show a therapeutic effect better than a control

**Q.** For `COc1cccc2c1C(=O)c1c(O)c3c(c(O)c1C2=O)C[C@@](O)(C(=O)CO)C[C@@H]3O[C@H]1C[C@H](N)[C@H](O)[C@H](C)O1` [doxorubicin, reference compound], which increase in lifespan (EL-4 T-cell lymphoma; doxorubicin monotherapy 12 mg/kg IV days 3 & 10) is on record?
**A.** minimal increase in lifespan

**Q.** And the NK cytotoxicity (NK cells [2])?
**A.** impaired

**Q.** With “human IL-18: recombinant mature form of human interleukin-18 (SEQ ID NO: 1), expressed in Escherichia coli” as the molecule, how does the “toxicity at highest dose tested” value ([3]; 2000 μg/kg administered weekly for up to 24 weeks) read?
**A.** no significant toxicity

**Q.** What about the maximum tolerated dose ([3]; up to 2000 μg/kg weekly for up to 24 weeks) of the same molecule?
**A.** not identified

B1: mIL-18: recombinant murine IL-18 (SEQ ID NO:2), used in the pre-clinical studies (protein)
chain: NFGRLHCTTAVIRNINDQVLFVDKRQPVFEDMTDIDQSASEPQTRLIIYMYKDSEVRGLAVTLSVKDSKMSTLSCKNKIISFEEMDPPENIDDIQSDLIFFQKRVPGHNKMEFESSLYEGHFLACQKEDDAFKLILKKKDENGDKSVMFTLTNLHQS
modifications: Murine
**Q.** What does the source list for B1?
**A.** tumor response (MOPC-315 plasmacytoma; 5 mg/Kg daily for approximately 30 days, advanced tumor): reproducible tumor regressions and cure; tumor response in SCID mice (MOPC-315 plasmacytoma; SCIDs bearing advanced MOPC-315 tumors, similar schedule): failed to regress; rechallenge with parental tumor (MOPC-315 plasmacytoma; after cure with IL-18): tumor rejection; increase in lifespan (EL-4 T-cell lymphoma; IL-18 monotherapy 1, 5 and 25 ug/dose S.C. days 3-16): did not show any increase in lifespan; therapeutic effect of monotherapy compared to control [1]: did not show a therapeutic effect better than a control; anti-tumor activity [4]: no activity; NK cytotoxicity (NK cells [5]): robust NK cytotoxicity
